T1: rHJ5Nag (Microbacterium sp. HJ5, UniProt A0A1W6AQA7)
T1 construct: pEASY-E2 in E. coli BL21 (DE3), purified on Ni-NTA
T1 sequence (A0A1W6AQA7 21-535): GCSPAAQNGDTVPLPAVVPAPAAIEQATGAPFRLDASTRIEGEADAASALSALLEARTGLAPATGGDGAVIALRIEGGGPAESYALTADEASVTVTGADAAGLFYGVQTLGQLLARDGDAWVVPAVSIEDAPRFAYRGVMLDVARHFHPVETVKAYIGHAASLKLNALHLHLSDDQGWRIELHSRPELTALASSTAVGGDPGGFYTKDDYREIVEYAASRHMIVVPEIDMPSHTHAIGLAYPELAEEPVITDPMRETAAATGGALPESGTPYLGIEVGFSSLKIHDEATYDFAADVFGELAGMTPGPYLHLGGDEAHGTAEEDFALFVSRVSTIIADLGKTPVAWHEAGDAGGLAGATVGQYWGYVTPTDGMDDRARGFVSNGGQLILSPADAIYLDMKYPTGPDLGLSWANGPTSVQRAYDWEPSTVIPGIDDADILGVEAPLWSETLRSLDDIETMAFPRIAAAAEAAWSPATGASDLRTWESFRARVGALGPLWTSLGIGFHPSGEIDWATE


Experiments:
rHJ5Nag = biological target: T1, rHJ5Nag; experiment: pNP release assay, nonlinear mixed-model inhibition fit; type: biochemical; conditions: 0.1-1.2 mM pNPGlcNAc; pH 6.0; 45 °C; mixed competitive and noncompetitive inhibition (alpha 3.412); product inhibitor at 5.0 and 10.0 mM
[1] = substrate: CC(=O)N[C@H]1[C@H](Oc2ccc([N+](=O)[O-])cc2)O[C@H](CO)[C@@H](O)[C@@H]1O; experiment: pNP release assay, nonlinear Michaelis-Menten fit; type: biochemical, Microbacterium sp. HJ5; conditions: pH 6.0, 45 °C, McIlvaine buffer, without added GlcNAc

Ki (rHJ5Nag) [mM] | Molecule | Km [1] [µM] | kcat [1] [s⁻¹]
14.6 | CC(=O)N[C@H]1C(O)O[C@H](CO)[C@@H](O)[C@@H]1O (stereo partly drawn) [N-acetylglucosamine] | – | –
– | rHJ5Nag (Microbacterium sp. HJ5) (protein, pEASY-E2 in E. coli BL21 (DE3), purified on Ni-NTA) GCSPAAQNGDTVPLPAVVPAPAAIEQATGAPFRLDASTRIEGEADAASALSALLEARTGLAPATGGDGAVIALRIEGGGPAESYALTADEASVTVTGADAAGLFYGVQTLGQLLARDGDAWVVPAVSIEDAPRFAYRGVMLDVARHFHPVETVKAYIGHAASLKLNALHLHLSDDQGWRIELHSRPELTALASSTAVGGDPGGFYTKDDYREIVEYAASRHMIVVPEIDMPSHTHAIGLAYPELAEEPVITDPMRETAAATGGALPESGTPYLGIEVGFSSLKIHDEATYDFAADVFGELAGMTPGPYLHLGGDEAHGTAEEDFALFVSRVSTIIADLGKTPVAWHEAGDAGGLAGATVGQYWGYVTPTDGMDDRARGFVSNGGQLILSPADAIYLDMKYPTGPDLGLSWANGPTSVQRAYDWEPSTVIPGIDDADILGVEAPLWSETLRSLDDIETMAFPRIAAAAEAAWSPATGASDLRTWESFRARVGALGPLWTSLGIGFHPSGEIDWATE | 520 ± 50 | 2886 ± 116
